Measured values: publication PMC3431386, “Swi1 Associates with Chromatin through the DDT Domain and Recruits Swi3 to Preserve Genomic Integrity” (PLoS ONE, 2012)

Legend:
Assay in all cases: pull-down; anti-FLAG M2 agarose beads bound to Swi1-FLAG (purified from swi3Δ cells) mixed with His6-Swi3 in lysis buffer A (50 mM Tris-HCl pH 8.0, 150 mM NaCl, 0.1% NP-40, 10% glycerol), 1 hour at 4°C, washed three times, Western blotting with anti-FLAG or His6 antibody
Settings in all cases: both partners purified
Swi1 (250–550)-5FLAG = target: T1, Swi1 (250–550)-5FLAG (S. pombe, UniProt Q9UUM2 250-550)
T1 construct: Swi1, S. pombe, amino acids 250–550 (contains an NLS and the DDT domain); also called DDT domain-containing region; pREP-Swi1(250–550)-5FLAG; source: S. pombe swi3Δ cells, nmt1 promoter, purified on anti-FLAG M2 agarose (500 mM NaCl washes); not shown: 5FLAG, C-terminal, kept
T1 sequence (looked up): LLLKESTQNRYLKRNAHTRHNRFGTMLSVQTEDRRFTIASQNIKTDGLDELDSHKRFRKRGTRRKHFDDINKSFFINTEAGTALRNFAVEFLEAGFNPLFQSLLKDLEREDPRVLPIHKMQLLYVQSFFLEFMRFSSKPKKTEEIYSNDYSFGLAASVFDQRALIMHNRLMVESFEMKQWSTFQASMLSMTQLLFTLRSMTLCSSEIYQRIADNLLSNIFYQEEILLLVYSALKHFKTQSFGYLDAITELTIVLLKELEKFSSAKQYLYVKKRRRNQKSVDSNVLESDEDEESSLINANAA

Swi1 (750–971)-5FLAG = target: T2, Swi1 (750–971)-5FLAG (S. pombe, UniProt Q9UUM2 750-971)
T2 construct: also called C-terminal Swi1; Swi1 C-terminal region; source: S. pombe swi3Δ cells, nmt1 promoter, purified on anti-FLAG M2 agarose (500 mM NaCl washes); not shown: 5FLAG, C-terminal, kept
T2 sequence (looked up): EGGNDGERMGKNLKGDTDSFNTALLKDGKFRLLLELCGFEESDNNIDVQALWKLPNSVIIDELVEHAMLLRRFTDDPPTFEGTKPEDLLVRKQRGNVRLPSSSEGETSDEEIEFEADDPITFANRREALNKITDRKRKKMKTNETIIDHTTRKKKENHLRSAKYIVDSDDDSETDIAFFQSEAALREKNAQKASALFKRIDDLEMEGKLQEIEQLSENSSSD

[1] = target: T3, full-length Swi1 (1–971)-5FLAG (overexpressed from the nmt1 promoter) (S. pombe, UniProt Q9UUM2 1-971)
T3 construct: also called pREP-Swi1-5FLAG; Swi1-FLAG; source: S. pombe swi3Δ cells, nmt1 promoter, purified on anti-FLAG M2 agarose (500 mM NaCl washes); not shown: 5FLAG, C-terminal, kept
T3 sequence (looked up): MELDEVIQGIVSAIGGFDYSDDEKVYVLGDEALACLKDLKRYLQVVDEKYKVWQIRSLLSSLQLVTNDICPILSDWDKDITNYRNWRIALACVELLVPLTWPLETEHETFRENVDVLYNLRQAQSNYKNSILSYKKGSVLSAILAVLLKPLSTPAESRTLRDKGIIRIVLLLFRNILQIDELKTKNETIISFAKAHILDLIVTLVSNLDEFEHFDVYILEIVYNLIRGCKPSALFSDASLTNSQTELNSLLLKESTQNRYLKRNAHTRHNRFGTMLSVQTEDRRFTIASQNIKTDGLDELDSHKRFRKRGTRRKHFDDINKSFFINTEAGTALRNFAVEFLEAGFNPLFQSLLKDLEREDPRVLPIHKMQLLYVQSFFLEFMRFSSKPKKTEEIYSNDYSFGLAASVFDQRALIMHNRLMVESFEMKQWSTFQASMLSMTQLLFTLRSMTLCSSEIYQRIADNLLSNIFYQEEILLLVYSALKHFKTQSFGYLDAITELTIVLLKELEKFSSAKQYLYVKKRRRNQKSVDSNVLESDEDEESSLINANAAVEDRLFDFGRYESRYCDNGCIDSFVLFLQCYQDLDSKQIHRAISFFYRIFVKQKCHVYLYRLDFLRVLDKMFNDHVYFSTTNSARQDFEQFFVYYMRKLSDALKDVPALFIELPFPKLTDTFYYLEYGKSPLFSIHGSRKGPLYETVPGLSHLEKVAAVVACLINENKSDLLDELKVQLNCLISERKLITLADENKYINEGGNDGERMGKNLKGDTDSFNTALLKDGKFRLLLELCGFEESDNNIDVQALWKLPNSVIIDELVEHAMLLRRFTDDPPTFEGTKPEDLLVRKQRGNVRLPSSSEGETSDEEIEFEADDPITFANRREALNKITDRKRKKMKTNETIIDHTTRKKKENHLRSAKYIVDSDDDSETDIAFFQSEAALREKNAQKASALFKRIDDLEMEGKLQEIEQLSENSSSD

binding result (Swi1 (250–550)-5FLAG): binds
binding result (Swi1 (750–971)-5FLAG): binds
binding result [1]: binds
B1: hexahistidine-tagged Swi3 (His6-Swi3) (natural protein, S. pombe, UniProt O14350 1-181, looked up)
chain: MSTAASDSGVEKLVEENKREEVKKNEEEKEFDLGLEENPDSVKKPRKRLAKFDEERLISENGIPKLRKMMRKVKLKGKGHEAKDLKQLLGMYHIWTHELYPRATFDDSISYLKTLGKHRSVKVRRRGWINEIAVENGSDSNASLFTGPSSNSLVNLTSGDPYVQDTADDAFVAQDNDTQLE
notes: Swi3, S. pombe; swi3 open reading frame in the NdeI/XhoI site of pET28a; also called recombinant Swi3; pET28a-Swi3; source: E. coli BL21(DE3), purified (Ni-NTA)
